Measurements taken from the DeepSol protein solubility set.

assay: soluble on expression in E. coli; label from the status in PepcDB or PDB records

| Sequence | soluble on expression in E. coli |
| --- | --- |
| MGSSHHHHHHDYDIPTTENLYFQGHMKVKILVDSTADVPFSWMEKYDIDSIPLYVVWEDGRSEPDEREPEEIMNFYKRIREAGSVPKTSQPSVEDFKKRYLKYKEEDYDVVLVLTLSSKLSGTYNSAVLASKEVDIPVYVVDTLLASGAIPLPARVAREMLENGATIEEVLKKLDERMKNKDFKAIFYVSNFDYLVKGGRVSKFQGFVGNLLKIRVCLHIENGELIPYRKVRGDKKAIEALIEKLREDTPEGSKLRVIGVHADNEAGVVELLNTLRKSYEVVDEIISPMGKVITTHVGPGTVGFGIEVLERKR | soluble |
| MGSDKIHHHHHHVILSDWLAARLDRSAAEPVYRQTLRLMQQAILTGQLPPGTKLPSSRTLAQDLGIARNTVLHVYDQLTAEGYVISTTGSGTYVADTRPDTAAVNARKKPVVVSGIETDADAAIETTRRPKRDLGDLSTRGRRLIDTAGVSAKQWGAFMPGVPDVAEFPARTWSRLQARLWKEANPDLLTYAPGGGYRPLRRALSDYLRVARSVNCTPDQIIITTGIHQSIDLAVRLLTDVGDRAWVEEPCYWGARSVLQSSGITLVPVPVDDEGLNPREQDLQQPPRLALVTPSHQYPLGMVMSLARRRTLLEYARQHNVWIIEDDYDSEFRYGSRPLASLQGLDDAGQVIYVGSLGKMLFPGLRIGYMIAPEHLVDTFRTGVAELYREGQLMQQAVMTDFIMDGHLTSHVRRMRALYGERRQILIDAITARFGSELPVMGDEAGLHLVLGLPDHANDRAVTAAAYDAGVIVRPLASYYSGDTPARRGLLLGYACVPNDRIGPAFDTLARVIEQTALKTPTRAA | not soluble |
| MGSDKIHHHHHHMLILYQFERTWGNPNLSHFCCKTETYLRMAGIEYAIKTTLPLFAPKGKLPYIKDGNIKLADSRFIIRHLKNRYKDLDEGLNPAEIALSLAMQRLIEEHLFWATMYTRWQYTDVNWQVNKKAIFDVLPPAIRDVAAVIYRYRIRRQIYGHGMGRHKPEEIFELGMQDIDALSACLGDKKYFLGDQPTTLDASAFGFLINTIACPIESPLKEYGLSKENLGDYIDRIKMQYYPDLQ | not soluble |
| AEAAPCETADGTYHIALPEAENPPVLIFLHGHGGEGAATLRNARLVAPLLARGWAVIAPDGQSRAPGRPRSWTFFPGWEGRDEPAFLAQVLGEASARFGLDADRAVLGGFSAGAFMVTYLACATPGAYRAYVPVSGGFWRPQPDRCAGPVHLFQTHGWADPVVPLEGRFLGGGRFQQGDIFAGLELWRQTNGCVEHKPDGFDQTGPFLRRRWQGCSGGSLEFALFPGGHTVPEGWADMMADWVEAL | not soluble |
| GPGSMQKQHAPGRGLVLHSHKVKGQQQERNDSLVQCAQHPPLQKRVNPHPHSHSSKPIPNIFVVITGLVVNPRTGSFHDFRSPCFPPPRGGGKGRNAWGNRNGEKVEAALAALQIGIFGDQHHIAGKEACQVDKKPSCSFFLTWPHILPTRFQRKKKRKNY | not soluble |
| MTSEHRSASVTPRHISFFNIPGHGHVNPSLGIVQELVARGHRVSYAITDEFAAQVKAAGATPVVYDSILPKESNPEESWPEDQESAMGLFLDEAVRVLPQLEDAYADDRPDLIVYDIASWPAPVLGRKWDIPFVQLSPTFVAYEGFEEDVPAVQDPTADRGEEAAAPAGTGDAEEGAEAEDGLVRFFTRLSAFLEEHGVDTPATEFLIAPNRCIVALPRTFQIKGDTVGDNYTFVGPTYGDRSHQGTWEGPGDGRPVLLIALGSAFTDHLDFYRTCLSAVDGLDWHVVLSVGRFVDPADLGEVPPNVEVHQWVPQLDILTKASAFITHAGMGSTMEALSNAVPMVAVPQIAEQTMNAERIVELGLGRHIPRDQVTAEKLREAVLAVASDPGVAERLAAVRQEIREAGGARAAADILEGILAEAG | soluble |
| MGSDKIHHHHHHMRQGAGLGYRRDLAEGFLQLRNNDRIQFMEIAPENWIKMGGFARYQFDKVAEKIPILIHGLSLSLGGQAPLDKELLSSIKAMIKQYNTPFFSDHLSFCECDGHLYDLLPMPFTDEAVKHTAARIREVQDFLEIQISVENTSYYLHSETSTMNEVEFLNAIVQEANCGIHLDVNNIYVNAVNHGLLDPHVFIDNVDLKRVNYIHIAGHDDEHAATEVQIQTSESFNKIKGDLRHLPPLLVDTHGENVKGTVWDLLEYTYARLSHMPPTLLERDFNFPPFEKLCKEVDIIHQLQQKYVKKRGLSWLKI | not soluble |
| MEHITLFTDILPEEQERMRICFHAREMTFRNGETIMEYSSSMKKIGLILYGRAILYCCDTEGNQYLIDEFNKDAVFGEPFLLPADSQHYYVCAAEETKIMFIDYEHVIKRCDQACYHHSQMVSNLLQLTAIQSRQQNERIYMLSRSSTRKKLMAYLNALSTEKHSKDLKLPMSYTALAQYLSVDRSAMTRELKNLEEEGIIKKSGKQIHII | not soluble |
| MEEKFDVVIIGAGPAGLFAAYELVEKSNLKVLIIEEGGDVDQRVCPMYELGYCIGCKPCHIMSGVGGAGGLSDGTVNLRPDIGGDLTELTNDENYSWQLVWEVDQILLRHEAPRNLYKGDPEQIKYWERKAAQAGVKFIPIIQRHIGSDNTPKVIKSIKNYLEKKGVKFLLWTKALEFNKGWVKVRRGKDTFTINARYIIVAPGRGGADWFHEVAKKIGLKARHGPIDVGVRVEVPAIVMEPITSINHDPKFHIYTDTYDDFVRTFCTNPYGFVVEERYDNYVGVNGHSMREKKSNNTNFALLTRIELTEPVEDTTAYGKSIAQLATTIGGGKPIIQRLGDLRRGRRSTWSRIRKSDVEPTLKHVTPGDIAMALPHRVVTNIIEGLERLDKVIPGVASDHTLLYAPEIKYYAMRVEVNELLETNIENVFAAGDGAGLSRDIVNAAATGIMAARGILVKEGLYNLKDFKKPGNWKEKIENLEPEYLEHHHHHH | not soluble |
| MEDTIPAMPQWDKIIYNVLHGSTMKGITSLKKTSVWNEATPVCRESNREAIRRRFTRGLLGRLLQRTPLESCTPVFLPAAQSWPTLEMVPAGALLPGLSEGGEGAKNGSVTTGFFEFTESLPAVGLQRVLPVLPKSAWA | not soluble |
| MSLKAIIDNIKILEQNAINKGLDELILMENAGLNLAKLIKKEAKKIRIQRKIRKVKILFLLGGGNNASDGLVALRNLKHAKAYKIGFKENTLFKKQEQILQNYAFKFCKKEPNFKKFHIIIDCILGTGSNRCLDEKTSLIIQKVNQSKALKIACDIPTNLGFYPCFKADITFCMGALKEILLEDFAKEFVGRIKIANLGIRSKKFYPNSQAFLLEKKDLKTIDRKINANKGNFGHIYIVANASAGTLAGLGALNFGAGLVSLVAQKSFSPLLMLKEKIENNASAIALGMGLENLDFLKDEILQNTPLILDANCFLSEALLWYLNRKDVVITPHPKEFIKLYKMCFDENLDIETLQKNRFFYARKFSQNYDCVLVLKGANPIIVQKEKLFVVNLGNQALAKGGSGDVLSGMIAAHLGFGFSALEAAKNATLAHGLVAKKYKFNKNSFDALKLIKGLKCLEGHHHHHH | soluble |
| MGSDKIHHHHHHMKKLSHQFDKPKRSVASPEALEALRNNNAVRWYVLSLPDCHRGGVRGLQREQDRRIQAGEPSFGFFAPSYQEVRRIDGKFVNTQRPLLFNYVFVRASERDVFQLMQRFPVLSFLPRVRERKREYFPYLSDAAMENLQWVARSYSNTLPVYIPQPDGLRKGDRIRITEGRFKGVEATVVIQPGAGRKDVMVCVENWMWVPLLRVMPGEYEVIALNDEDKHVYTRLDNDCMLNGLHSALQRYHSAEGVNEEDRSLAARALKEYGNLRMDTDVMRCKLYAILLPAYTILGMEEEAAKLVGVMQTMLPLVKAEQSRALAVVTLYGCTDSSIYYHLAHEAVDPWKKEEKPKKSKQQLINRLADYDRWLRH | not soluble |
| MVASESILQALQTVIDPNTGKDLVTTRAIRNLEVNGADVTFDAQLGYPAKSQIPALRRALIAAARGVAGVDNVSVNMQSVIETHAVPRGIALLPNVKNVIAVASGKGGVGKSTTAVNLALALAAEGARVGLLDADIYGPSQAQMMGIEGRPQSEDGKTMEPLENYGVQVMSIGFLVDADEAMIWRGPMAVQALEQLLRQTNWKNLDYLVIDMPPGTGDIHLTLSQKVPVTGAVIVTTPQDIALLDARKGVKMFEKVGVPIVGVVENMAVHVCSQCGHAEHIFGQGGGQRMAQDYGLAYLGALPLDINIRQQADGGRPSVVADPDGEVAGLYKDVARQVAVAVAAMGKDYSSKFSSISISRAPAGGAAALEHHHHHH | soluble |
| ALAQKRDNVLFQAATDEQPAVIKTLEKLVNIETGTGDAEGIAAAGNFLEAELKNLGFTVTRSKSAGLVVGDNIVGKIKGRGGKNLLLMSHMDTVYLKGILAKAPFRVEGDKAYGPGIADDKGGNAVILHTLKLLKEYGVRDYGTITVLFNTDEEKGSFGSRDLIQEEAKLADYVLSFEPTSAGDEKLSLGTSGIAYVQVNITGKASHAGAAPELGVNALVEASDLVLRTMNIDDKAKNLRFNWTIAKAGNVSNIIPASATLNADVRYARNEDFDAAMKTLEERAQQKKLPEADVKVIVTRGRPAFNAGEGGKKLVDKAVAYYKEAGGTLGVEERTGGGTDAAYAALSGKPVIESLGLPGFGYHSDKAEYVDISAIPRRLYMAARLIMDLGAGK | soluble |
| MSLNVLIVDDEKLIRQGIINFFDWEKEGFQIVGEAANGKDALELISKNEPHIVMTDIVMPVMDGIDLVKRVKRDFPEVEIIVLSSFEEFEYVRSTFHSGVADYILKPRLNEKDLLKTLSEVRGKIPALAKVDSPSRAVPSISDQFEKILNGHAPLSQDDTGEKRFPKGPYRLAVITPIEEQDVHRRKQHLDEREQAITGIDVVCSIEKEGDAVLLLPLEGDVSSSMKQALDDFLKGRDAHALLVSSPFSSIYEAKEVYERDIPLLKQYSFYLPDTPLLIYDELPKTNEGVKTFDLNHFIELCKGRKFAIGFQYLLDYVEYMSTRYTQTSTECKAFLGNIIFNMIVLMGNLKYDVKELEREKYHYFATINAAKNVREATDCFYQFLEVTKQIISVYSNEGSSSIQKMLAYIEEHHSEPLSLSQLANYFHFNPSYLSAYFRQHHDEGFSEYLNKVRIRKAKEWLKSSTIPISEIYALVGYSDHSYFCKVFKKRTGMPPSRYRRENAEGHHHHHH | soluble |
| MNDATPDQLRTGPSRETPRFQQIVQDIKRRIADGSLSEHAALPSERRIAEETGISRMTARRALDALEAEGLVYSADRRGRFVSPKRVSYDVSNLVSFVADAESRGTALGIEVIRAQEGKADPALAARLELEPGAAIHEYTRLFRQDGHAIFVETEYVDARRCPDFLSHDLHQSTTRLLESQYDLVARTGDIVIRMRGAHPEETHLLGLAQSQSGIELTQVIRDASGRPFCFGRQFWRGEMAEFSARAIVGGSIHG | not soluble |
| MTDIAQLLGKDADSLLQHRCMTIPSDQLYLPGKDYVDRVMIDNNRPPAVLRNMQTLYNTGRLAGTGYLSILPVDQGVEHSAGASFAANPRYFDPKNIVELAIEAGCNCVASTYGVLASVSRRYAHRIPFLVKLNHNETLSYPTEYDQTLYASVEQAFNMGAVAVGATIYFGSEQSRRQIEEISAAFERAHELGMVTVLWAYLRNSSFKKDGVDYHVSADLTGQANHLAATIGADIVKQKMAENNGGYKAVNFGYTDDRVYSKLTSDNPIDLVRYQLANCYMGRAGLINSGGADGGDTDLGDAVRTAVINKRAGGMGLILGRKAFKKSMADGVKLINAVQDVYLDSKVTIA | not soluble |
| SAAAMAEQEGSKGSARNRGGVQRVEGKLRASVEKGDYYEAHQMYRTLFFRYMSQSKHIEARELMYSGALLFFSHSQQNSAADLSMLVLESLEKHEVKVTEELLENLAKLFSLMDPNSPERVAFVSRALKWSSGGSGKFGHQKLHQFLAITLWKEQNYYESRYHFLHSSDGEGCANMLVEYSSTRGYRSEVDMFVAQAVLQFLCLKNKTSASVVFTTYTQKHPSIERGPPFVQPLLNFIWFLLLAVEGGKLTVFTVLCEQYQPSLKRDPMYNEYLDRIGQLFFGLPPKQSSSYGGLLGNLLNSLMGSGEDDDVEDGQEDSSPIELD | soluble |
